What is called Ki is the dissociation constant of the complex between target and ligand, obtained from inhibition or displacement. High values mean a looser hold on the target, low ones a stronger hold on the target.

“And” between values parts separate entries of the source, which are not always exact repeats. Identical values can stand only once.

For assay [1], the target named is severe acute respiratory syndrome (SARS) coronavirus papain-like protease (PLpro), wild type (SARS coronavirus) (UniProt P0C6X7). In words: inhibition of AMC substrate cleavage.
Assay [2] shares this target.

As to “Lys48-linked tri-ubiquitin (triUb^Lys48), free chain (from UniProt P0CG48 1-76) (complex)”, the Ki in assay [1] is 10.6 µM and 10.1 µM and 4.08 µM.
Regarding ISG15-AMC, in assay [2], the KM of ISG15-AMC cleavage is 15.9 µM and the apparent kcat/KM of ISG15-AMC cleavage (Michaelis-Menten kinetics) worked out at 598000 M⁻¹ s⁻¹.
In the case of monoUb-AMC (from UniProt P0CG48 1-76), in assay [2], the KM of monoUb-AMC cleavage is 15.1 µM and the apparent kcat/KM of monoUb-AMC cleavage (Michaelis-Menten kinetics) came out at 33300 M⁻¹ s⁻¹.
As to “triazole-linked diUb^Lys48-AMC (from UniProt P0CG48) (complex)”, the KM of triazole-linked diUb^Lys48-AMC cleavage in assay [2] turned out to be 33.4 µM.

(Values after PMC4875570.)
